# What was measured:
# [1] = Release of Papain from DC Beads (300-500 μm), azo-casein assay; format: physicochemical; conditions: 80 μL, loaded from 200 μL 5 mg/mL Papain, 6 hrs, 5 mL PBS pH 6.5
# Description: 80 μL of DC Beads® (300-500 μm) were taken in a 1.5 mL centrifuge tube and washed twice with distilled water. 200 μL of a 5 mg/mL Papain solution was added and the mixture incubated at room temperature for 6 hrs with gentle agitation. The beads were then washed twice with distilled water and suspended in 5 mL PBS pH 6.5. The first sample of 250 μL was taken at 30 min, and thereafter samples were taken every hour for the next 16 hrs, with 250 μL PBS being replaced each time. The Papain concentration in the samples was measured by azo-casein assay and the cumulative release of Papain from the DC Beads as a function of time is set out in Graph shown below.
# [2] = system: HT29 cells; assay: Efficacy of Papain released from DC Beads in Transwell chamber; format: cell-based, human; conditions: 5 mg/ml Papain (500 μg/80 μl beads) loaded beads in Transwell chamber; after 3 hours
# Description: Subsequently, experiments were conducted to determine the efficacy of the Papain released from the beads. In these experiments, HT29 cells (human colorectal cancer cell line) were seeded in 24 well plates. After 24 h, the plates were treated with 5 mg/ml Papain (500 μg/80 μl beads) loaded beads in a Transwell chamber. After every 3 h, the Transwell chamber containing beads was transferred to a fresh well. This process was continued up to 3 days.
molecule,measurement,setting,value
"Papain: plant-derived mucin-affecting protease enzyme extracted from papaya; loaded into DC Beads 300-500 μm (protein, UniProt P00784 134-345, looked up, loaded into DC Beads, plant-derived mucin-affecting protease enzyme extracted from papaya; loaded into DC Beads 300-500 μm) Papain: IPEYVDWRQKGAVTPVKNQGSCGSCWAFSAVVTIEGIIKIRTGNLNEYSEQELLDCDRRSYGCNGGYPWSALQLVAQYGIHYRNTYPYEGVQRYCRSREKGPYAAKTDGVRQVQPYNEGALLYSIANQPVSVVLEAAGKDFQLYRGGIFVGPCGNKVDHAVAAVGYGPNYILIKNSWGTGWGENGYIRIKRGTGNSYGVCGLYTSSFYPVKN",duration of sustained release of Papain,[1],greater than 16 hours
same,effect of Papain released from the DC Beads on cells,[2],death of all cells

# From patent US20210008180A1, “FORMULATIONS CONTAINING MUCIN-AFFECTING PROTEASES” (MUCPHARM PTY LTD, priority 2018, published 2021)
